Assay results published in paper PMC11342145.

Legend:
[1] = molecular target: Grb7 (UniProt Q03160); assay: fragment AP-MS, label-free quantification; settings: reference: YYYS fragment
[2] = molecular target: Grb2 (UniProt Q60631); assay: fragment affinity purification, western blot; settings: reference: YYYS fragment; sites Y239,Y240
[3] = molecular target: Pik3r1 (UniProt P26450); assay: fragment affinity purification, western blot
[4] = molecular target: Grb2 (UniProt Q60631); assay: fragment AP-MS, label-free quantification; settings: reference: YYYS fragment; sites Y239,Y240
[5] = molecular target: Arhgef5 (UniProt E9Q7D5); assay: fragment AP-MS, label-free quantification; settings: reference: YYYS fragment; sites Y239,Y240
[6] = molecular target: Pik3r1 (UniProt P26450); assay: fragment AP-MS, label-free quantification
[7] = molecular target: Plcg1 (UniProt Q62077); assay: fragment affinity purification, western blot; settings: reference: pYpYYS fragment; sites Y313,S335
[8] = molecular target: Ubash3b (Sts1) (UniProt Q8BGG7); assay: fragment affinity purification, western blot; settings: reference: pYpYYS fragment; sites Y313,S335
[9] = molecular target: Plcg1 (UniProt Q62077); assay: fragment AP-MS, label-free quantification
[10] = molecular target: Ubash3b (Sts1) (UniProt Q8BGG7); assay: fragment AP-MS, label-free quantification
[11] = reference: YYYS fragment, sites Y239,Y240
[12] = reference: pYpYYS fragment, sites Y313,S335
[13] = reference: YYYS fragment, sites Y239,Y240,Y313,S335

Measured: binding against the reference

UniProt Q8BGG7, sequence (Q8BGG7 whole entry, looked up, the tested form may be a part): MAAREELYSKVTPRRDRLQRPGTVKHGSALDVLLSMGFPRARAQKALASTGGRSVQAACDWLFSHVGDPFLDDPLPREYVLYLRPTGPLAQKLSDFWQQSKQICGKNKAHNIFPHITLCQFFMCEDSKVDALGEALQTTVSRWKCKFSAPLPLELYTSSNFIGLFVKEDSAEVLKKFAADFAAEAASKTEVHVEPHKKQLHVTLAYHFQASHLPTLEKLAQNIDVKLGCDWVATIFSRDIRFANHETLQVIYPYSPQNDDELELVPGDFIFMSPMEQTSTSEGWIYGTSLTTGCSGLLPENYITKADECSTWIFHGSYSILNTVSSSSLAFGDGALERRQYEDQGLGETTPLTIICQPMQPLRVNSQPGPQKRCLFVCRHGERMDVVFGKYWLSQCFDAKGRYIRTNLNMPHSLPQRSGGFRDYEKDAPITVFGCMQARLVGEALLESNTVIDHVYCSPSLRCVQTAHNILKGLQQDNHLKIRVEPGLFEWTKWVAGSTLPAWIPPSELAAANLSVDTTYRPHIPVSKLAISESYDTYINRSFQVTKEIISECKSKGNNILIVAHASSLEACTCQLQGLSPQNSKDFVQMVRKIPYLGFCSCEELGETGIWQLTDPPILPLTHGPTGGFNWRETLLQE
UniProt Q62077, sequence (Q62077 whole entry, looked up, the tested form may be a part): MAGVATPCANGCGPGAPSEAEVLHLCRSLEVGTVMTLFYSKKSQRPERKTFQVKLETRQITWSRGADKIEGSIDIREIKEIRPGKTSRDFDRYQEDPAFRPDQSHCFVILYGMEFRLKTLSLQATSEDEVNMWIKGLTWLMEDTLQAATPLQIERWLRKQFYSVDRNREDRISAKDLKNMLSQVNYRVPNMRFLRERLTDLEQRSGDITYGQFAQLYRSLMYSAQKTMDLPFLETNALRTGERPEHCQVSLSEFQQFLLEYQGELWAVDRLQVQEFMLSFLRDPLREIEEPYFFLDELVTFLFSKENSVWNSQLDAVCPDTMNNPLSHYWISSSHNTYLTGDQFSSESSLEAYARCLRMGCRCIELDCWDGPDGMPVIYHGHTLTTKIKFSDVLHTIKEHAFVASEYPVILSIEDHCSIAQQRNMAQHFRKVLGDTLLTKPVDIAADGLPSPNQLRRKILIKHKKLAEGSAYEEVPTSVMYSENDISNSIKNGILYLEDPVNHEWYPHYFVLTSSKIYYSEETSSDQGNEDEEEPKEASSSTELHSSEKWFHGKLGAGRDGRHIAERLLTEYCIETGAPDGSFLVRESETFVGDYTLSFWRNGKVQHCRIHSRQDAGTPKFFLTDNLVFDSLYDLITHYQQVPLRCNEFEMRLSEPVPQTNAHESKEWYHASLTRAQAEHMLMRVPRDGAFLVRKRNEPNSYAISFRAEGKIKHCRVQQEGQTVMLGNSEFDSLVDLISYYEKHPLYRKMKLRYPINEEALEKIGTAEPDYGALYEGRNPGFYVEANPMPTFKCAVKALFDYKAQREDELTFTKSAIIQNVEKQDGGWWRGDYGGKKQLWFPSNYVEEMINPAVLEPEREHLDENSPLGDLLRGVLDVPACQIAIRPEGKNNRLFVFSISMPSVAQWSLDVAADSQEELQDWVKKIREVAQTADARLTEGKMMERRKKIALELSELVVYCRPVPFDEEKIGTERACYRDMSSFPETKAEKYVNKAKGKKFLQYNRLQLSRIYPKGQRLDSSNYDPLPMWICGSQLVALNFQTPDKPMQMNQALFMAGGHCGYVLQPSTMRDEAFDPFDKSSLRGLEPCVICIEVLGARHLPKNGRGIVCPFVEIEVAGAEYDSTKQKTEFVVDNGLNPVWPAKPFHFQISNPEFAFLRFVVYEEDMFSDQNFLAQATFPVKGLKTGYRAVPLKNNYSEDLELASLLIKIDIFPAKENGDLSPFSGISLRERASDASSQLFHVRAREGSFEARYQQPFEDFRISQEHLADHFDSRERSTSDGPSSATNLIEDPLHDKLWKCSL
UniProt P26450, sequence (P26450 whole entry, looked up, the tested form may be a part): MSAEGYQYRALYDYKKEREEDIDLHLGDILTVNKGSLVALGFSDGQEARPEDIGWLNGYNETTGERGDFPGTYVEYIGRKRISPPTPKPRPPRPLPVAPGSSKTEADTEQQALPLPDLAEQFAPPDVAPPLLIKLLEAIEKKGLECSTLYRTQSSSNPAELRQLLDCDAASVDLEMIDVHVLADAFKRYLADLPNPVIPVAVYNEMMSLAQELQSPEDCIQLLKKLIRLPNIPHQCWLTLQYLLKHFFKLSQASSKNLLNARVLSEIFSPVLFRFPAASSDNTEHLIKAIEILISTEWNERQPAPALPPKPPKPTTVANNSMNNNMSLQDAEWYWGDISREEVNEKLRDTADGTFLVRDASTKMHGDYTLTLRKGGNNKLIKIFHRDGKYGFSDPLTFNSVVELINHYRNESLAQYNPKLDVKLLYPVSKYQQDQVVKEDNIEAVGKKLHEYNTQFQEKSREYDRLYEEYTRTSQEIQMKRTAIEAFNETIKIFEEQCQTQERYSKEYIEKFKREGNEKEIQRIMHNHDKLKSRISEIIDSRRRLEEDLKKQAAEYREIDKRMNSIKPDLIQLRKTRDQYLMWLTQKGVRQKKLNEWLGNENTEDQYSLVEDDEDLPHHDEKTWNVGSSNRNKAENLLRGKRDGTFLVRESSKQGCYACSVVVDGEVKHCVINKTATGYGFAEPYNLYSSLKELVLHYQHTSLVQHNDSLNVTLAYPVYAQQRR
UniProt Q03160, sequence (Q03160 whole entry, looked up, the tested form may be a part): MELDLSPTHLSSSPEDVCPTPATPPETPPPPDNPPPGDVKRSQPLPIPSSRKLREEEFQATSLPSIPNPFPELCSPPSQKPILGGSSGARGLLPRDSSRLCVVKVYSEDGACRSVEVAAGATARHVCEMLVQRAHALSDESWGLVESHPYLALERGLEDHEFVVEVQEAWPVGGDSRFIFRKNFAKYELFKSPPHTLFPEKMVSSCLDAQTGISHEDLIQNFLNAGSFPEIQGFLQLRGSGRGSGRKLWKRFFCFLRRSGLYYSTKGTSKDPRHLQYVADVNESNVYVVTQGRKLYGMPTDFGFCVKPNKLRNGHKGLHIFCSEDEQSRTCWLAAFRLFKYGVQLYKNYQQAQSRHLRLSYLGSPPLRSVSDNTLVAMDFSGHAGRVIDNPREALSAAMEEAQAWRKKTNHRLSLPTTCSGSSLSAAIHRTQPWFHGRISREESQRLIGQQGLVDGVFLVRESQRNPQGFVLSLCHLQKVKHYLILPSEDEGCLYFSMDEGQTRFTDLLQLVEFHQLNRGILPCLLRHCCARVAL
UniProt E9Q7D5, sequence (E9Q7D5 whole entry, looked up, the tested form may be a part): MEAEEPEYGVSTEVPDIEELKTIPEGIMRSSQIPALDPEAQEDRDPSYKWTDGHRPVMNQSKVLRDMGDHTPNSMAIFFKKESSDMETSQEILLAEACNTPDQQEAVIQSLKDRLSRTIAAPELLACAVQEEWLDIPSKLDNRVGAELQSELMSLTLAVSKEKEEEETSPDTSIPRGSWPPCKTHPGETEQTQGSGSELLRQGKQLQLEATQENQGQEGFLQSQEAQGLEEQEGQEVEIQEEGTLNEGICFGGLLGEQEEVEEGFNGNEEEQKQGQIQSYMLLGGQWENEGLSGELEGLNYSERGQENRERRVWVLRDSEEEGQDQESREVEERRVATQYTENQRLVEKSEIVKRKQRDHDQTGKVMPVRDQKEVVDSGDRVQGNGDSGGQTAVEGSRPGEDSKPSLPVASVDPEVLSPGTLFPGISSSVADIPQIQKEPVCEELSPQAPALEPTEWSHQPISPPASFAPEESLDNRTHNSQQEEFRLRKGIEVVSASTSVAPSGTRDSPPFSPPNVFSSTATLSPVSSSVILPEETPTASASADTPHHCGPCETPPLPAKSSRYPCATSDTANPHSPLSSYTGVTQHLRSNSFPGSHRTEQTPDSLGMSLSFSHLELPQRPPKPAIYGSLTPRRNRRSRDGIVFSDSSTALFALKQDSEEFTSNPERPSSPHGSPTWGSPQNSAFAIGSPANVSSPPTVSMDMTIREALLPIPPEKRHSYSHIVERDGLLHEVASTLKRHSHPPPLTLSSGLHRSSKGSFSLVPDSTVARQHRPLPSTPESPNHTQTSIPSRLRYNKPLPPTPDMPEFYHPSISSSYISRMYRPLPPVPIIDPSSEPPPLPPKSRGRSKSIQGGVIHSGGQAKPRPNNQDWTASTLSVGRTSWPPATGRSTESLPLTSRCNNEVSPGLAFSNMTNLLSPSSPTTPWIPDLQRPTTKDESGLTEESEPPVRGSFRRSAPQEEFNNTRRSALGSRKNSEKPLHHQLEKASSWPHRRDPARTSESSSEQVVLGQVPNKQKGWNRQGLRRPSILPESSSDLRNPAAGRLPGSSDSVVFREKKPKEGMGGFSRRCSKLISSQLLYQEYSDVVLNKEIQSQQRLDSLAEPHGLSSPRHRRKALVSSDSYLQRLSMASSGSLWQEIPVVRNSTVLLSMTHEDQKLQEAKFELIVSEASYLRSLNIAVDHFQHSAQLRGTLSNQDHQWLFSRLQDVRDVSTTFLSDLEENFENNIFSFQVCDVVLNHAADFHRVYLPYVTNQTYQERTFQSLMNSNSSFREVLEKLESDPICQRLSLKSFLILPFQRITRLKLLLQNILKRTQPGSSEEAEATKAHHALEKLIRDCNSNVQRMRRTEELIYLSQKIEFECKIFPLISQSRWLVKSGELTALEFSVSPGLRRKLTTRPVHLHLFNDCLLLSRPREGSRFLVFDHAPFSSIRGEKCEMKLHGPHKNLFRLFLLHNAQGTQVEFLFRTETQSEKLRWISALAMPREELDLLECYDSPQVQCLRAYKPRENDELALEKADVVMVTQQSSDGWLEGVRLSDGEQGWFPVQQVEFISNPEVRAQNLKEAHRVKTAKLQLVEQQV

Shc1 (p52Shc1) CH1 region, 107 residues (from UniProt P98083-2) pYYYS fragment
stronger: [1]; sites Y239

Shc1 (p52Shc1) CH1 region, 107 residues (from UniProt P98083-2) pYpYYS fragment
stronger: [2] | [3]; [11] | [1]; sites Y239,Y240 | [4] | [5] | [6]; [11]

Shc1 (p52Shc1) CH1 region, 107 residues (from UniProt P98083-2) pYpYpYpS fragment
stronger: [7] | [8] | [3]; [12] | [9]; [13] | [9]; [12] | [10]; [13] | [10]; [12] | [6]; [12]
